Results: article PMC4375503, “Structural Insights into the Autoregulation and Cooperativity of the Human Transcription Factor Ets-2*”

Tests used:
[1] = target: T1, Ets-2 360-464 (core Ets domain) (Homo sapiens, UniProt P15036 360-464); assay: EMSA; apparent Kd; EMSA: 50 mM Tris-HCl pH 7.5, 25 mM NaCl, 50 mM L-arginine-HCl, 0.5 mM EDTA, 0.1% Tween 20, 2 mM DTT, 5% glycerol, room temperature 15 min; probe 0.1 nM (Ets-2); conditions: protein: recombinant; tags: His tag removed by TEV; label: 5'-32P on strand 1; blunt
T1 sequence: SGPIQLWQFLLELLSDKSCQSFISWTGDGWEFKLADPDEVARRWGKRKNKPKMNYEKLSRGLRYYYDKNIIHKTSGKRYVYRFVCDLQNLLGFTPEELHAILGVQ

[2] = target: T2, Ets-1 short (equivalent of Ets-2 360-464) (Mus musculus, UniProt P27577 331-440); assay: as above; conditions: protein: recombinant; tags: His tag removed by TEV; label: 5'-32P on strand 1; blunt
T2 sequence: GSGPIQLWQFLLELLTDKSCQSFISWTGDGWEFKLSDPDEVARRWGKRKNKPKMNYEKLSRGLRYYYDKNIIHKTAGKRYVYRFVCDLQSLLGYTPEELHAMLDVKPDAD

[3] = target: T3, Ets-2 325-464 (core Ets and autoinhibition domains) (Homo sapiens, UniProt P15036 325-464); assay: X-ray crystallography; 2.5 A; 3 Ets-2 and 3 duplexes per asymmetric unit; pH 5.5; EMSA: 50 mM Tris-HCl pH 7.5, 25 mM NaCl, 50 mM L-arginine-HCl, 0.5 mM EDTA, 0.1% Tween 20, 2 mM DTT, 5% glycerol, room temperature 15 min; probe 0.1 nM (Ets-2); conditions: protein: recombinant; tags: His tag removed by TEV; blunt
T3 sequence: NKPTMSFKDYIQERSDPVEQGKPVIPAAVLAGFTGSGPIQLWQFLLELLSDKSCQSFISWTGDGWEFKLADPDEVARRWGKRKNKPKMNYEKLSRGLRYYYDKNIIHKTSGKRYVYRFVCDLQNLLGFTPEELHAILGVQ

B1: single-site EMSA probe (dsDNA)
DNA 1: ATCTCACCGGAAGTGTAGCA
DNA 2: TGCTACACTTCCGGTGAGAT
- Kd [1]: 0.4 ± 0.04 nM
- Kd [2]: 0.1 ± 0.06 nM

B2: crystallization 10-mer (dsDNA)
DNA 1: ACCGGAAGTG
DNA 2: CACTTCCGGT
- binding result [3]: binds
